The source of these data is paper PMC5389570 (Nucleic Acids Research, 2017).

The target of the experiment is heterotrimeric human RPA (RPA70, RPA32, RPA14) (human, UniProt P27694;P15927;P35244). In words: SPR. On the technique in general: Surface plasmon resonance follows binding to a sensor surface in real time, without labels.
heterotrimeric human RPA (RPA70, RPA32, RPA14), sequence (P27694 whole entry, chain 1 of 3): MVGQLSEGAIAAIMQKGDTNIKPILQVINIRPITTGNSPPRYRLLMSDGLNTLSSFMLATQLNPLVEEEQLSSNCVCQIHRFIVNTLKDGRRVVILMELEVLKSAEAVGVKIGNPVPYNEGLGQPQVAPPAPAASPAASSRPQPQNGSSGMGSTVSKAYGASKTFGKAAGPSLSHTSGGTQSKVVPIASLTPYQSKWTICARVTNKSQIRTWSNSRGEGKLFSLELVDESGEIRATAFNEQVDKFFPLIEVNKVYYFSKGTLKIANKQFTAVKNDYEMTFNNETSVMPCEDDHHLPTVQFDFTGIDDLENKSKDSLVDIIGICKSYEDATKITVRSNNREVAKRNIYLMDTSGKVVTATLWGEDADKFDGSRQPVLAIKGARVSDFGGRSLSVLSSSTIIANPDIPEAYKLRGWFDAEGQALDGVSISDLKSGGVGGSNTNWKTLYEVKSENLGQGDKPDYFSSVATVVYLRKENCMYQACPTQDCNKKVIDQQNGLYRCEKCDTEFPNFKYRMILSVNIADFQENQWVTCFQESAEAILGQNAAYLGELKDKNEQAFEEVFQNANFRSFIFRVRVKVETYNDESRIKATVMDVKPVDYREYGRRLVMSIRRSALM
heterotrimeric human RPA (RPA70, RPA32, RPA14), sequence (P15927 whole entry, chain 2 of 3): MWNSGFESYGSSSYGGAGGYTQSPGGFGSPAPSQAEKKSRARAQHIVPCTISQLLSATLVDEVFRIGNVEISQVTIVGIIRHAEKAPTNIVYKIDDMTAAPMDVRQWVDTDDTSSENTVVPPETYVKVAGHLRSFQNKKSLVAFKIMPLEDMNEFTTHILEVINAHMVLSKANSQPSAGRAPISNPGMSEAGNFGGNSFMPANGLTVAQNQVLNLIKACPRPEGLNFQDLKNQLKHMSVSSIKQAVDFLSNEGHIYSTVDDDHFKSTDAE
heterotrimeric human RPA (RPA70, RPA32, RPA14), sequence (P35244 whole entry, chain 3 of 3): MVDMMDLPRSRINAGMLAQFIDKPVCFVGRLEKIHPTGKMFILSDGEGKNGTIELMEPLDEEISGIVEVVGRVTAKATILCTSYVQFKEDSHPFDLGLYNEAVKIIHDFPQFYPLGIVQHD

B1: human Cdc45 (cell division cycle protein 45), recombinant, C-terminal His6 tag (natural protein)
chain: MFVSDFRKEFYEVVQSQRVLLFVASDVDALCACKILQALFQCDHVQYTLVPVSGWQELETAFLEHKEQFHYFILINCGANVDLLDILQPDEDTIFFVCDTHRPVNVVNVYNDTQIKLLIKQDDDLEVPAYEDIFRDEEEDEEHSGNDSDGSEPSEKRTRLEEEIVEQTMRRRQRREWEARRRDILFDYEQYEYHGTSSAMVMFELAWMLSKDLNDMLWWAIVGLTDQWVQDKITQMKYVTDVGVLQRHVSRHNHRNEDEENTLSVDCTRISFEYDLRLVLYQHWSLHDSLCNTSYTAARFKLWSVHGQKRLQEFLADMGLPLKQVKQKFQAMDISLKENLREMIEESANKFGMKDMRVQTFSIHFGFKHKFLASDVVFATMSLMESPEKDGSGTDHFIQALDSLSRSNLDKLYHGLELAKKQLRATQQTIASCLCTNLVISQGPFLYCSLMEGTPDVMLFSRPASLSLLSKHLLKSFVCSTKNRRCKLLPLVMAAPLSMEHGTVTVVGIPPETDSSDRKNFFGRAFEKAAESTSSRMLHNHFDLSVIELKAEDRSKFLDALISLLS
What is called Kd is the equilibrium constant for the complex coming apart. Turning to B1, binding was characterised by a dissociation constant (Kd) of 115 nM.
